# Source: patent publication US20200071394A1
# Read-outs that look alike come from different tables or passages of the source.
# Legend:
# [1] = target: Recombinant Human IL-17A, Sino Biological, 12047-HNAS (human) (UniProt Q16552); test: indirect ELISA, human IL-17A coated
# [2] = target: Recombinant Human IL-17A, Sino Biological, 12047-HNAS (human) (UniProt Q16552); test: SPR (Biacore), antibody captured by anti-human antibody on the chip, IL-17A as analyte, 1:1 model
# [3] = target: Recombinant Human IL-17A, Sino Biological, 12047-HNAS (human) (UniProt Q16552); test: indirect ELISA, human IL-17A coated; remark: listed apart in the source
# [4] = target: Recombinant Human IL-17A, Sino Biological, 12047-HNAS (human) (UniProt Q16552); test: cell-based or functional assay
# Sequence of Recombinant Human IL-17A, Sino Biological, 12047-HNAS (human) (Q16552 24-155 limits assumed, form in doubt): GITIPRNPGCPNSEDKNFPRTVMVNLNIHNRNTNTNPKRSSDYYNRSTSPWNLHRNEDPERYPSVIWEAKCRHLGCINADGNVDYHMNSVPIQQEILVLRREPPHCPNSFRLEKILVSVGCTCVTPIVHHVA
substance,measurement,setting,value
Novartis humanized anti-IL-17 antibody (Novartis mAb),EC50,[1],0.0341 µg/mL
same,Kd,[2],0.111 nM
same,koff,[2],0.000161 s⁻¹
same,kon,[2],1.46e+06 M⁻¹ s⁻¹
same,EC50,[3],0.0329 µg/mL
same,IC50 of IL-6 release by HT1080 cells stimulated with IL-17A and TNFα,[4],0.52 µg/mL
same,IC80 of IL-6 release by HT1080 cells stimulated with IL-17A and TNFα,[4],2.11 µg/mL
same,IC90 of IL-6 release by HT1080 cells stimulated with IL-17A and TNFα,[4],4.8 µg/mL
